Tests used:
[1] = molecular target: T1, human BCMA expressed on cells (human, UniProt Q02223 1-184); test: flow cytometry, hybridoma supernatant, HEK293T cells stably expressing human BCMA
T1 construct: the cell line is named under assay; also called wildtype human BCMA
T1 sequence: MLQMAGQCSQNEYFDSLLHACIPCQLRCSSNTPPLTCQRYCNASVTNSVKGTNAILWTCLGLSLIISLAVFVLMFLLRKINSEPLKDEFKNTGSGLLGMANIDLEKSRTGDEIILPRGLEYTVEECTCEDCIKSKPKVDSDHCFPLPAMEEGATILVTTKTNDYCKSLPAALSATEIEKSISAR

[2] = molecular target: T2, His-tagged cynomolgous macaque BCMA (Acro Biosystems, BCA-C52H7) (cynomolgus macaque, UniProt Q02223 1-54 (human entry)); test: ELISA, hybridoma supernatant, coated His-tagged antigen
T2 construct: Bought protein; also called cyno BCMA; CyBCMA; not shown: His tag

[3] = molecular target: T3, His-tagged mouse BCMA (Acro Biosystems, BCA-M52H3) (mouse, UniProt O88472 1-49); test: as above
T3 construct: Bought protein; not shown: His tag
T3 chain: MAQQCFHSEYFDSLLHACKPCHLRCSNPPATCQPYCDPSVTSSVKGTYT

[4] = molecular target: T4, His-tagged human BCMA (Acro Biosystems, Cat. #BCA-H522y) (human, UniProt Q02223 1-54); test: as above
T4 construct: also called huBCMA; P1; not shown: His tag
T4 sequence: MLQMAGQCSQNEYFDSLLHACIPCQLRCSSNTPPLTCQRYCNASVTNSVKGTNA

[5] = molecular target: T4, His-tagged human BCMA (Acro Biosystems, …); test: ELISA, IgG purified from hybridoma supernatant, coated His-tagged antigen
[6] = molecular target: T1, human BCMA expressed on cells; test: flow cytometry, fixed RPMI 8226 cells (BCMA+, TACI+: the cells carry both targets)
[7] = molecular target: T4, His-tagged human BCMA (Acro Biosystems, …); test: BLI, IgG on HFC tip, His-tagged human BCMA 300-37.5 nM
[8] = molecular target: T5, Cyno TACI-His (Sino Biological, 90976-C08H) (cynomolgus macaque, UniProt G7PTR7 1-165); test: ELISA, coated Cyno TACI-His
T5 construct: Bought protein; also called cynomolgous macaque TACI; CyTACI
T5 sequence: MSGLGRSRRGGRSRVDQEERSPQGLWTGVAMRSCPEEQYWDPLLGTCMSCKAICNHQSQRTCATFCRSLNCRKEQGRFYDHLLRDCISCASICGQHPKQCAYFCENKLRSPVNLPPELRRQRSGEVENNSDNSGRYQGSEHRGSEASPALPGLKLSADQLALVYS

[9] = molecular target: T6, Human BCMA-His (Sino Biological, 10620-H08H) (human, UniProt Q02223 1-54); test: ELISA, coated Human BCMA-His
T6 construct: not shown: His tag
T6 sequence: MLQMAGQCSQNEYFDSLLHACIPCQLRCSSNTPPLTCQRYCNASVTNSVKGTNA

[10] = molecular target: T7, recombinant his-tagged human TACI (Sinobiological cat #11937-H08H) (human, UniProt O14836 1-165); test: BLI, IgG on HFC tip, His-tagged human TACI 300-37.5 nM
T7 construct: Bought protein; also called Human TACI-His; huTACI; not shown: His tag
T7 sequence: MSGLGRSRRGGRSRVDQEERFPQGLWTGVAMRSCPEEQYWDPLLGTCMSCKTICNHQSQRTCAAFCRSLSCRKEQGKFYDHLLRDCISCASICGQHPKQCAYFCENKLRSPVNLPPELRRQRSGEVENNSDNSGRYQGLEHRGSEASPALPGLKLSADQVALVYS

[11] = molecular target: T8, Human HER3-His (Sino Biological, 10201-H08H) (human, UniProt P21860 20-643); test: ELISA, coated His-tagged antigen
T8 construct: Specificity control; also called Human HERS-His

[12] = molecular target: T2, His-tagged cynomolgous macaque BCMA …; test: ELISA, coated Cyno BCMA-His
[13] = molecular target: T5, Cyno TACI-His (Sino Biological, …); test: BLI, IgG on HFC tip, His-tagged cynomolgus TACI 300-37.5 nM
[14] = molecular target: T1, human BCMA expressed on cells; test: flow cytometry, H929 cells (BCMA+)
[15] = molecular target: T7, recombinant his-tagged human TACI …; test: ELISA, coated Human TACI-His
[16] = molecular target: T2, His-tagged cynomolgous macaque BCMA …; test: BLI, IgG on HFC tip, His-tagged cynomolgus BCMA 300-37.5 nM

Row | Binder | % Parent (percent positive cells) [1] | ELISA values (OD 450 nm) [2] | ELISA values (OD 450 nm) [3] | ELISA values (OD 450 nm) [4] | EC50 [5] | EC50 [6] | Kd [7] | koff [7] | kon [7] | EC50 [8] | EC50 [9] | Kd [10] | koff [10] | kon [10] | binding result [11] | EC50 [12] | EC50 [14] | EC50 [15] | Kd [16] | koff [16] | also measured
1 | 552-LN2-E6 (antibody produced by the hybridoma) (antibody, V domains shown, Mouse antibody from B cell hybridoma (culture supernatant or IgG purified from it)) VH: QIQLVQSGPELKKPGETVKISCMASGYTFTDYSVRWVKQAPGKGLEWMGWINTETGEPTYADDFKGRFAFSLETSASTAYLQINNLKNEDTATYFCAISYYYALDYWGHGTSVTVSS VL: DIVLTQSPASLTVSLGQRATISCRASKSVSTSVYSFLHWYQQKPGQPPKLLIYLASNLESGVPARFSGSGSGTDFTLNIHPVEEEDAATYYCQHSRELPRTFGGGTKLEIK | 60.8% | 0.729 OD | 0.002 OD | 0.832 OD | 0.0505 µg/mL | – | – | – | – | – | – | – | – | – | – | – | – | – | – | – | –
2 | 552-LN2-F8 (antibody produced by the hybridoma) (antibody, V domains shown, Mouse antibody from B cell hybridoma (culture supernatant or IgG purified from it)) VH: QIQLVQSGPELKKPGETVKISCKASGYTFTDYTMYWVKQAPGKGLKWMGWINTETGEPTYADDFKGRFVFSLETSANTAYLQINNLKNEDTATYFCAISYYYGMDYWGQGTSVTVTS VL: DIILTQSPASLAVSLGQRATITCRASKSVSTSGYNFVYWYQQKPGQPPKLLIYLASNLESGVPARFSGSGSGTDFTLNIHPVEEEDAATYYCQHSRELPRTFGGGTKLEIK | 73.8% | 1.83 OD | 0.001 OD | 0.884 OD | 0.0585 µg/mL | – | – | – | – | – | – | – | – | – | – | – | – | – | – | – | –
3 | 552-LN1-E9 (antibody produced by the hybridoma) (antibody, V domains shown, Mouse antibody from B cell hybridoma (culture supernatant or IgG purified from it)) VH: QIQLVQSGPELKKPGETVKISCKASGYTFTDYSIYWVKQAPGKGLKWMGWINTETGEPTYADDFKGRFAFSLETSASSAYLQINTLKNEDTATYFCSISYYYAMDYWGQGTSVTVSS VL: DIVLTQSPASLAVSLGQRATISCRASKSVSTSGYSFLHWYQQKPGQPPKLLIYFASNLESGVPARFSGSGSGTDFTLNIHPVEEEDAATYYCQHSRELPRTFGGGTKLEIK | 75.4% | 2.07 OD | 0.017 OD | 0.836 OD | 0.071 µg/mL | – | – | – | – | – | – | – | – | – | – | – | – | – | – | – | –
4 | 552-LN1-F4 (antibody produced by the hybridoma) (antibody, V domains shown, Mouse antibody from B cell hybridoma (culture supernatant or IgG purified from it)) VH: QIQLVQSGPELKKPGETVKISCMASGYTFTDYSVRWVKQAPGKGLEWMGWINTETGEPTYAHDFKGRFAFSLETSASTAYLQINNLKDEDTSTYFCAISYYYALDYWGHGTSVTVSS VL: DIVLTQSPASLTVSLGQRATISCRASKSVSTSGYNFLHWYQQKPGQPPKLLIYLASNLESGAPARFSGSGSGTDFTLNIHPVEEEDAATYYCQHSRELPRTFGGGTKLEIK | 66.4% | 1.89 OD | 0.006 OD | 0.845 OD | 0.037 µg/mL | – | – | – | – | – | – | – | – | – | – | – | – | – | – | – | –
5 | 1C8-402 hIgG1 (antibody, also called [90]) heavy: not shown light: DIQMTQSPSSLSASVGDRVTITCRASQDISNYLSWYQQKPGKAPKLLMRYTSRLHSGVPSRFSGSGSGTDFTLTISSLEQEDFATYYCQQGNLFPPTFGGGTKVEIKRTVAAPSVFIFPPSDEQLKSGTASVVCLLNNFYPREAKVQWKVDNALQSGNSQESVTEQDSKDSTYSLSSTLTLSKADYEKHKVYACEVTHQGLSSPVTKSFNRGEC | – | – | – | – | – | 0.000136 µM | 0.000791 µM | 0.00312 s⁻¹ | 3.95e+06 M⁻¹ s⁻¹ | 0.004 nM | 0.11 nM | 0.0702 µM | 0.0576 s⁻¹ | 821000 M⁻¹ s⁻¹ | no binding (tested: 3 µg/ml (highest concentration)) | 0.002 nM | 0.128 nM | 0.02 nM | 0.0024 µM | 0.00272 s⁻¹ | Kd [13]: 0.00259 µM; koff [13]: 0.00186 s⁻¹; kon [13]: 718000 M⁻¹ s⁻¹; kon [16]: 1.13e+06 M⁻¹ s⁻¹
6 | 1C8-507 hIgG1 (antibody, V domains shown, also called [92]; hu1C8-507) VH: QVQLVQSGAEVKKPGASVKVSCKASGYTFRNYVMHWVKQKPGQGLEWMGWILPYNDGTKYAQKFQGKVTMTSDKSTSTVYMELSSLTSEDTAVYYCARYDYEGSFDYWGQGTLVTVSS VL: DIQMTQSPSSLSASVGDRVTITCRASQDISNYLNWYQQKPGKAPKLLMRYTSLLHSGVPSRFSGSGSGTDFTLTISSLEQEDFATYYCQQGNTFPPTFGGGTKVEIKR | – | – | – | – | – | 0.000136 µM | 0.0591 µM | 0.00172 s⁻¹ | 29200 M⁻¹ s⁻¹ | 0.011 nM | 0.087 nM | 0.61 µM | 0.163 s⁻¹ | 267000 M⁻¹ s⁻¹ | no binding (tested: 3 µg/ml (highest concentration)) | 0.038 nM | 0.095 nM | 0.021 nM | 0.0217 µM | 0.0354 s⁻¹ | kon [16]: 1.63e+06 M⁻¹ s⁻¹
7 | 1C8-403 hIgG1 (antibody, V domains shown, also called [91]; hu1C8-403) VH: QVQLVQSGAEVKKPGASVKVSCKASGYTFTNYVMHWVKQKPGQGLEWMGYILPYNDGTKYAQKFQGKVTMTSDKSTSTVYMELSSLTSEDTAVYYCARYDWEGSFDYWGQGTLVTVSS VL: DIQMTQSPSSLSASVGDRVTITCRASSDISNYLNWYQQKPGKAPKLLMCYTSRLHSGVPSRFSGSGSGTDFTLTISSLEQEDFATYYCQQGNTFPPTFGGGTKVEIKR | – | – | – | – | – | 0.000172 µM | 0.0586 µM | 0.00288 s⁻¹ | 49200 M⁻¹ s⁻¹ | 0.034 nM | 0.062 nM | 1100 µM | 0.131 s⁻¹ | 118 M⁻¹ s⁻¹ | no binding (tested: 3 µg/ml (highest concentration)) | 0.016 nM | 0.134 nM | 0.051 nM | 0.00654 µM | 0.00917 s⁻¹ | kon [16]: 1.4e+06 M⁻¹ s⁻¹
8 | 539-SP5-D7 (antibody produced by the hybridoma) (antibody, V domains shown, Mouse antibody from B cell hybridoma (culture supernatant or IgG purified from it)) VH: EVMLVDSGGNLVKPGGSLKLSCAASGFTFSNYVISWVRQTPEKRLEWVATISTVGTNTYYPDSVRGRFTISRDNAENTLYLQMSSLRSEDTAIYYCSRHKYGYDDPSYAMDYWGQGTSVTVSS VL: QLVLTQSSSASFSLGASAKLTCTLSSQHSTYTIEWYQQQPLKPPKYVMELKKDGSHSTGDGIPDRFSGSSSGADRYLSISNIQAEDEAIYICGVGDTVKEQFVYVFGGGTKVTVL | 76.2% | 0.252 OD | – | 0.817 OD | 0.0335 µg/mL | – | – | – | – | – | – | – | – | – | – | – | – | – | – | – | –
9 | 539-SP2-H3 (antibody produced by the hybridoma) (antibody, V domains shown, Mouse antibody from B cell hybridoma (culture supernatant or IgG purified from it)) VH: EVQLQQSGPELVKPGASVKMSCKASGYTFTSYVIHWVKQKPGQGLEWIGYVLPYNDVIKYNEKFKGKATLTSDKSSSTAYMDLSSLTSEDSAVYYCARWGDFDEGIWFPYWGQGTLVTVSA VL: DVLMTQTPLSLPVSLGDHASVSCRSSQSIVHTDGNTYLEWYLQKPGQSPKLLIYKVSNRFSGVPDRFSGSGSGTDFTLKISRVEAEDLGVYYCFQGSHVPWTFGGGTKLEIK | 74.3% | 0.669 OD | 0.542 OD | 0.813 OD | 0.152 µg/mL | – | – | – | – | – | – | – | – | – | – | – | – | – | – | – | –

— patent publication US20230374147A1 (HUMMINGBIRD BIOSCIENCE PTE, published 2023)
